Measurements: the supplement of paper PMC7125110
± gives the standard error. This sample holds only a part of the variants without activity.

B1: glmS ribozyme (parent)
chain: AUAAAAGCGCCAGAACUACAGAAAUGUAGUUGACGAGGAGGAGGUUUAUCGAAUUUUCGGCGGAUGCCUCCAAA

What was measured:
Conditions in all cases: with glucosamine-6-phosphate
[1] = variants of: B1; assay: self-cleavage kobs at 160 uM GlcN6P; higher = faster cleavage; RNA array
Procedure, shortened: (§1)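 On sequenced MiSeq chips, barcoded ribozyme variants were made in situ by E. coli RNA polymerase and followed at 37 °C through a hybridised Cy3 probe. Glucosamine-6-phosphate was flowed in at 40 μM to 10 mM in HEPES/KCl/Mg(OAc)2 buffer. Exponential fits to normalised per-tile medians gave kobs, and weighted Michaelis–Menten fits gave kcat and KM.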

[2] = variants of: B1; assay: self-cleavage kobs at 640 uM GlcN6P; higher = faster cleavage; RNA array
Procedure, shortened: as §1

[3] = variants of: B1; assay: self-cleavage kobs at 2500 uM GlcN6P; higher = faster cleavage; RNA array
Procedure, shortened: as §1

[4] = variants of: B1; assay: self-cleavage kobs at 10000 uM GlcN6P; higher = faster cleavage; RNA array
Procedure, shortened: as §1

| Variant | self-cleavage kobs at 160 uM GlcN6P [1] | self-cleavage kobs at 640 uM GlcN6P [2] | self-cleavage kobs at 2500 uM GlcN6P [3] | self-cleavage kobs at 10000 uM GlcN6P [4] |
| --- | --- | --- | --- | --- |
| G38C A42C | < 1e-05 s⁻¹ | < 1e-05 s⁻¹ | < 1e-05 s⁻¹ | < 1e-05 s⁻¹ |
| C16G C67G | 0.000347 ± 0.00013 s⁻¹ | 9.56e-05 ± 1.7e-05 s⁻¹ | 8.7e-05 ± 1.4e-05 s⁻¹ | 6.6e-05 ± 7e-06 s⁻¹ |
| G13U G37C U45C C68U | < 1e-05 s⁻¹ | – | < 1e-05 s⁻¹ | – |
| A12U A15G C16U U31G C71U | 0.000195 ± 6.7e-05 s⁻¹ | 0.000442 ± 0.00015 s⁻¹ | 0.000331 ± 0.0001 s⁻¹ | – |
| A15C U30A C67A | 0.000277 ± 6.8e-05 s⁻¹ | 0.000357 ± 8.3e-05 s⁻¹ | 0.0013 ± 0.0005 s⁻¹ | – |
| G38C U46G A64U | < 1e-05 s⁻¹ | < 1e-05 s⁻¹ | – | – |
| A39U U54C G62C | < 1e-05 s⁻¹ | < 1e-05 s⁻¹ | < 1e-05 s⁻¹ | – |
| A36U G63C C67U | < 1e-05 s⁻¹ | < 1e-05 s⁻¹ | < 1e-05 s⁻¹ | – |
| U30G U31G C50A A52U G62U | < 1e-05 s⁻¹ | – | – | – |
| G37A G38A | < 1e-05 s⁻¹ | < 1e-05 s⁻¹ | < 1e-05 s⁻¹ | < 1e-05 s⁻¹ |
| A33C U56C | < 1e-05 s⁻¹ | < 1e-05 s⁻¹ | < 1e-05 s⁻¹ | < 1e-05 s⁻¹ |
| A15C C50G | 0.000107 ± 3.2e-05 s⁻¹ | – | 0.000205 ± 5.8e-05 s⁻¹ | – |
| G9A U65G | < 1e-05 s⁻¹ | < 1e-05 s⁻¹ | – | – |
| U30C G35U G40U A42G U47C | < 1e-05 s⁻¹ | < 1e-05 s⁻¹ | – | – |
| A12C G51C U57C A64C | < 1e-05 s⁻¹ | < 1e-05 s⁻¹ | < 1e-05 s⁻¹ | – |
| A33U C50U G62C | < 1e-05 s⁻¹ | < 1e-05 s⁻¹ | < 1e-05 s⁻¹ | – |
| G41U G63C | < 1e-05 s⁻¹ | – | < 1e-05 s⁻¹ | < 1e-05 s⁻¹ |
| C61G G62A C67U C68A | 0.000136 ± 2.6e-05 s⁻¹ | 4.43e-05 ± 1.5e-05 s⁻¹ | 0.000107 ± 2.2e-05 s⁻¹ | – |
| G38C G63A | < 1e-05 s⁻¹ | < 1e-05 s⁻¹ | < 1e-05 s⁻¹ | – |
| U56A G60C | < 1e-05 s⁻¹ | < 1e-05 s⁻¹ | < 1e-05 s⁻¹ | – |
| G7U C10G A33U C34U C67G C68A | 6.38e-05 ± 2.3e-05 s⁻¹ | 3.4e-05 ± 1.7e-05 s⁻¹ | – | – |
| A15U G38C G43C G51U | < 1e-05 s⁻¹ | < 1e-05 s⁻¹ | – | < 1e-05 s⁻¹ |
| C8A A12U C67U | < 1e-05 s⁻¹ | < 1e-05 s⁻¹ | < 1e-05 s⁻¹ | – |
| C58U C61G G66A C67A | 5.89e-05 ± 2e-05 s⁻¹ | 0.000108 ± 3.7e-05 s⁻¹ | – | – |
| G37A C50G C71A | 0.000356 ± 0.00012 s⁻¹ | 0.000114 ± 3.6e-05 s⁻¹ | 6.17e-05 ± 2.4e-05 s⁻¹ | – |

| Variant | self-cleavage kobs at 160 uM GlcN6P [1] | self-cleavage kobs at 640 uM GlcN6P [2] | self-cleavage kobs at 2500 uM GlcN6P [3] | self-cleavage kobs at 10000 uM GlcN6P [4] |
| --- | --- | --- | --- | --- |
| G29C G41U G63C C68A | < 1e-05 s⁻¹ | < 1e-05 s⁻¹ | < 1e-05 s⁻¹ | – |
| G44C A64U | < 1e-05 s⁻¹ | – | < 1e-05 s⁻¹ | – |
| A12G G32A C67G C68U | 0.000534 ± 0.00025 s⁻¹ | – | – | – |
| A14G C16U C34A G41A A52C | < 1e-05 s⁻¹ | – | < 1e-05 s⁻¹ | – |
| C10A U57A A64G C67G C71A | 0.000245 ± 7.6e-05 s⁻¹ | – | 8.51e-05 ± 3.3e-05 s⁻¹ | – |
| U45G C61A | < 1e-05 s⁻¹ | < 1e-05 s⁻¹ | < 1e-05 s⁻¹ | < 1e-05 s⁻¹ |
| A12U A15C A42G | 0.00123 ± 0.0005 s⁻¹ | 0.00381 ± 0.0017 s⁻¹ | 0.0282 ± 0.014 s⁻¹ | – |
| A12G A14U A15U | 4.38e-05 ± 2.1e-05 s⁻¹ | – | – | – |
| G44U U45G U69A | < 1e-05 s⁻¹ | – | – | – |
| C10U G32C A36G A39U | < 1e-05 s⁻¹ | < 1e-05 s⁻¹ | < 1e-05 s⁻¹ | – |
| A6U G38U U47G | < 1e-05 s⁻¹ | – | – | – |
| A33U U65G | < 1e-05 s⁻¹ | < 1e-05 s⁻¹ | – | – |
| A6U U30G G44U A53C | < 1e-05 s⁻¹ | < 1e-05 s⁻¹ | < 1e-05 s⁻¹ | – |
| C10U G13U A42U U46G U57A | < 1e-05 s⁻¹ | < 1e-05 s⁻¹ | < 1e-05 s⁻¹ | – |
| A39G A52U C61G A64C | < 1e-05 s⁻¹ | < 1e-05 s⁻¹ | < 1e-05 s⁻¹ | – |
| G51C G59A | < 1e-05 s⁻¹ | < 1e-05 s⁻¹ | < 1e-05 s⁻¹ | – |
| A33C G35A | < 1e-05 s⁻¹ | < 1e-05 s⁻¹ | < 1e-05 s⁻¹ | < 1e-05 s⁻¹ |
| A14C G32C G35U U57A | < 1e-05 s⁻¹ | < 1e-05 s⁻¹ | – | – |
| G9C C50G | 0.00045 ± 0.00018 s⁻¹ | – | – | – |
| G13U A15G G35C A52U | < 1e-05 s⁻¹ | < 1e-05 s⁻¹ | < 1e-05 s⁻¹ | – |
| C16A G35C U47G | < 1e-05 s⁻¹ | – | < 1e-05 s⁻¹ | – |
| C11G A33U U49C C50U U65C | < 1e-05 s⁻¹ | – | – | – |
| G40C G44A A53C | < 1e-05 s⁻¹ | < 1e-05 s⁻¹ | < 1e-05 s⁻¹ | – |
| A36C U45C | < 1e-05 s⁻¹ | < 1e-05 s⁻¹ | < 1e-05 s⁻¹ | – |
